In patent US10828354B2, “Laser-assisted intradermal administration of active substances” (PANTEC BIOSOLUTIONS AG, priority 2015, dated 2020):

B1: XCL1-OVA vaccibodies: homodimeric chimeric protein of XCL1 chemokine, dimerization unit of hinge and CH3 domain of human IgG3, and OVA antigen moiety (protein)
chain: VGTEVLEESSCVNLQTQRLPVQKIKTYIIWEGAMRAVIFVTKRGLKICADPEAKWVKAAIKTVDGRASTRKNMAETVPTGAQRSTSTAITLTGELKTPLGDTTHTCPRCPEPKSCDTPPPCPRCPEPKSCDTPPPCPRCPEPKSCDTPPPCPRCPAPELLGGPSVFLFPPKPKDTLMISRTPEVTCVVVDVSHEDPEVQFKWYVDGVEVHNAKTKPREEQYNSTFRVVSVLTVLHQDWLNGKEYKCKVSNKALPAPIEKTISKTKGQPREPQVYTLPPSREEMTKNQVSLTCLVKGFYPSDIAVEWESSGQPENNYNTTPPMLDSDGSFFLYSKLTVDKSRWQQGNIFSCSVMHEALHNRFTQKSLSLSPGKGSIGAASMEFCFDVFKELKVHHANENIFYCPIAIMSALAMVYLGAKDSTRTQINKVVRFDKLPGFGDSIEAQCGTSVNVHSSLRDILNQITKPNDVYSFSLASRLYAEERYPILPEYLQCVKELYRGGLEPINFQTAADQARELINSWVESQTNGIIRNVLQPSSVDSQTAMVLVNAIVFKGLWEKAFKDEDTQAMPFRVTEQESKPVQMMYQIGLFRVASMASEKMKILELPFASGTMSMLVLLPDEVSGLEQLESIINFEKLTEWTSSNVMEERKIKVYLPRMKMEEKYNLTSVLMAMGITDVFSSSANLSGISSAESLKISQAVHAAHAEINEAGREVVGSAEAGVDAASVSEEFRADHPFLFCIKHIATNAVLFFGRCVSP

Tests used:
[1] = test system: B16-OVA melanoma; test: B16-OVA melanoma tumor model; assay type: in vivo, mouse; conditions: for tumor growth, therapeutic setting: B6 mice, immunized 3 days after s.c. inoculation, monitored 16 days after inoculation, vs OVA and PBS groups
Experimental: B Cohort of mice treated as specified in A with 20 μl of PBS containing OVA (low dose: 1.5 μg or high dose: 3.1 μg), or XCL1-OVA vaccibodies (low dose 2.5 μg or high dose 5.0 μg) were analyzed for tumor volume. Control mice were treated with 20 μl of PBS. Tumor volume is shown for each individual mouse and the mean (horizontal bar) is indicated for each condition.***, p<0.001; **, p<0.01; *, p<0.05 and NS: non significant.
C Time line of the prophylactic setting involving laser-assisted, dermal delivery of 20 μl of PBS containing OVA (1.5 μg) or XCL1-OVA vaccibodies (2.5 μg), subcutaneaous inoculation of the B16-OVA melanoma, and tumor volume measurement.
The B16-OVA melanoma is not rejected by immune-competent syngeneic B6 mice, unless mice have been subjected to prophylactic or therapeutic immunization. To evaluate the capacity of laser-assisted, intradermal delivery of XCL1-OVA vaccibodies to inhibit the growth of B16-OVA tumors, B6 mice were subcutaneously inoculated in the flank with B16-OVA cells (FIG. 4A). Three days later, the ear of the mice was subjected to laser-assisted, dermal delivery of XCL1-OVA vaccibodies and tumor growth was monitored 16 days after inoculation. For the sake of comparison, mice received equimolar amounts of free OVA or PBS. […] To investigate the prophylactic effects on tumor growth of laser-assisted intradermal XCL1-OVA immunization, B6 mice were immunized with XCL1-OVA vaccibodies and subcutaneously inoculated with B16-OVA tumor cells 30 days later (FIG. 4C).
(§1) Mice were injected subcutaneously (s.c.) into the flank with 10^5 B16-OVA or B16 melanoma cells (Brown et al, 2001). Tumor size was assessed 14 to 16 days later using a caliper. The presence of T cells infiltrating the tumor was assessed after enzymatic treatment of tumor mass with collagenase 2 (Worthington) and Percoll gradient (Amersham-Pharmacia).

[2] = test system: tumor infiltrating CD8+ and CD4+ T cells; test: Intracellular IFNgamma and tetramer staining of tumor-infiltrating T cells; assay type: in vivo, mouse; conditions: day 11 after immunization, PMA and ionomycin restimulation
Experimental: D B6 mice were subcutaneously inoculated with B16-OVA or B16 and immunized 3 days later with 20 μl of PBS containing OVA (1.5 μg) or XCL1-OVA (2.5 μg) vaccibodies using laser-assisted, dermal delivery. On day 11 after immunization, the tumor mass of each mouse was excised and the percentage of […] cells determined among tumor infiltrating CD8^+ and CD4^+ T cells. Data are shown for each individual mouse and the mean (horizontal bar) is indicated for each condition. **, p<0.01; *, p<0.05 and NS for non significant.
A, B, C Mice were immunized as in FIG. 4C. […]
To assess whether the reduction in melanoma tumor growth observed upon treatment with XCL1-OVA vaccibodies was associated with the induction of endogeneous, antigen-specific CD8^+ T cells, wild-type and Xcr1^−/− mice were immunized via laser-assisted intradermal delivery of XCL1-OVA vaccibodies. Six days after immunization, the magnitude of OVA-specific T cell cytotoxicity was measured using an in vivo cytotoxic assay (FIG. 5 C). […]
as §1, with “(Amersham-Pharmacia). […]” for “(Amersham-Pharmacia).”

[3] = test system: OT-I CD8+ and OT-II CD4+ T cells; test: Proliferation of adoptively transferred CTV-labeled OT-I and OT-II T cells after laser-assisted dermal antigen delivery; assay type: in vivo, mouse
Experimental: B Single-cell suspension were prepared from ear-draining, auricular LNs from B6 mice that received OT-I and OT-II T cells and were immunized by applying on laser-microporated ear 20 μl of PBS containing OVA (3.1 μg), XCL1-OVA vaccibodies (5 μg), XCL1 (1.8 μg) plus OVA (3.1 μg), or PBS alone as a control. CTV dilution of OT-I and OT-II T cells was measured 72 h after antigen delivery. Numbers in histograms indicate the percentage of divided T cells (n=3).
To test whether targeting XCR1^+ dermal DCs with antigen-loaded XCL1-based vaccibodies induced the activation of antigen-specific T cells in vivo, the model antigen OVA was inserted into XCL1-based vaccibodies. Mice were adoptively transferred with CellTraceViolet (CTV)-labeled, OT-I CD8^+ T cells, which express a T cell receptor (TCR) specific for SIINFEKL, an ovalbumin (OVA) peptide presented by H-2K^b, and OT-II CD4^+ T cells, which express a TCR specific for an OVA peptide presented by H2-A^b. One day later, the ear of the mice were subjected to laser-assisted microporation and topical application of XCL1-OVA vaccibodies. To compare the potency of the XCL1-OVA formulation with that of free OVA, mice were also treated with concentrations of OVA equimolar to that present in XCL1-OVA vaccibodies. Three days after immunisation, single-cell suspensions were prepared from ear-draining auricular lymph nodes (LNs) and the extent of OT-I and OT-II cell proliferation was determined by CTV dilution (FIG. 3A).
A P.L.E.A.S.E. portable laser developed by Pantec Biosolutions AG (Bach et al, 2012) was used with the following setting: fluence: 11.9 J/cm^2, pulse duration: 75 μs; RepRate: 200 Hz; pulses per pore: 2, pore array size: 14 mm^2 and pore density 8%. P.L.E.A.S.E.-assisted skin microporation was performed on the ear of anesthetized mice. 20 μl of sterile PBS, 20 μl of sterile PBS containing 1.5 μg (low) or 3.1 μg (high) OVA, or 20 μl of sterile PBS containing 2.5 μg (low) or 5 μg (high) XCL1-OVA were then evenly applied on the microporated ear surface. The PBS solution percolated inside the micropores in less than 10 minutes.
OT-I and OT-II T cells were isolated from pooled LNs and spleen of OT-I or OT-II mice kept on a Rag-2^−/−-B6 [CD45.1] background using CD8^+ and CD4^+ T cell negative isolation kits (Dynal, Invitrogen), respectively. Purity was determined by staining with CD4, CD8, CD5 and TCR Vα2. For CTV labeling, purified OT-I and OT-II T cells were resuspended in PBS containing 2.5 mM cell trace violet (CTV) (Molecular Probes) for 3 min at room temperature. 10^6 CTV-labeled OT-I and OT-II T cells were adoptively transferred into the specified mice. At the indicated times, single-cell suspensions were prepared from the auricular LNs draining the immunized ears and OT-I and OT-II T cells were analyzed by FACS.

[4] = test system: B16 melanoma; test: B16 melanoma tumor model; assay type: in vivo, mouse; conditions: B6 mice immunized 3 days after inoculation, day 11 after immunization
Experimental: A B6 mice were subcutaneously inoculated with B16-OVA or B16 melanoma, and immunized 3 days later with XCL1-OVA vaccibodies using laser-assisted, dermal delivery. On day 11 after immunization, the volume of the tumor developing in each mouse was determined. Data are shown for each individual mouse and the mean (horizontal bar) is indicated for each condition. **, p<0.01.
The B16-OVA melanoma is not rejected by immune-competent syngeneic B6 mice, unless mice have been subjected to prophylactic or therapeutic immunization. To evaluate the capacity of laser-assisted, intradermal delivery of XCL1-OVA vaccibodies to inhibit the growth of B16-OVA tumors, B6 mice were subcutaneously inoculated in the flank with B16-OVA cells (FIG. 4A). Three days later, the ear of the mice was subjected to laser-assisted, dermal delivery of XCL1-OVA vaccibodies and tumor growth was monitored 16 days after inoculation. For the sake of comparison, mice received equimolar amounts of free OVA or PBS. […]
as §1

[5] = test system: SIINFEKL peptide-pulsed splenocytes; test: In vivo cytotoxicity assay; design: species or system mouse
Experimental: C B6 (WT) and Xcr1^−/− mice were subjected to laser-assisted, dermal delivery of 20 μl of PBS containing OVA (1.5 μg) or XCL1-OVA (2.5 μg) vaccibodies or of 20 μl of PBS (control), or. On day 6, mice were injected with CFSE-labeled target cells to quantitate the induced OVA-specific cytotoxicity in vivo (see Materials and Methods). The percent specific lysis is shown for each individual mouse and the mean (horizontal bar) is indicated for each condition. *, p<0.05.
To assess whether the reduction in melanoma tumor growth observed upon treatment with XCL1-OVA vaccibodies was associated with the induction of endogeneous, antigen-specific CD8^+ T cells, wild-type and Xcr1^−/− mice were immunized via laser-assisted intradermal delivery of XCL1-OVA vaccibodies. Six days after immunization, the magnitude of OVA-specific T cell cytotoxicity was measured using an in vivo cytotoxic assay (FIG. 5 C). […] Therefore, laser-assisted, intradermal delivery of XCL1-OVA vaccibodies induced anti-tumoral responses that can be correlated with the presence of OVA-specific IFNgamma^+ T cells in the regressing tumor mass.
Splenocytes from B6 mice were pulsed with the SIINFEKL peptide or left untreated and labeled with low (0.25 mM) or high (2.5 mM) dose of CTV, respectively. […] 36 h later, single-cell suspension were prepared from spleen and the ratio of CTV^high to CTV^low cells was determined by FACS.

[6] = B6 mice, auricular LNs, 3 days after immunisation

Row | Molecule | tumor growth, therapeutic setting [1] | IFN gamma production by CD8+ and CD4+ T cells infiltrating B16-OVA tumor mass [2] | effectiveness at eliciting CD4+ T cell proliferation relative to free OVA, per molecule [3, 6] [times] | effectiveness at eliciting CD8+ T cell proliferation relative to free OVA, per molecule [3, 6] [times] | OT-I and OT-II cell proliferation (CTV dilution) compared with free OVA ([3]; B6 mice, ear-draining auricular LNs, 72 h after laser-assisted delivery, equimolar amounts) | magnitude of OT-I and OT-II proliferation ([3]; Xcr1−/− mice) | proliferation of OT-I and OT-II T cells outside draining LNs ([3]; spleen and LNs that drain territories distinct from the ear, 72 h) | inhibition of B16-OVA tumor growth, XCR1 dependence ([1]; B6 (WT) vs Xcr1−/− mice) | tumor growth, prophylactic setting ([1]; B6 mice immunized 30 days before inoculation, monitored 14 days after inoculation, vs OVA and PBS) | tumor growth, therapeutic setting, high dose vs low dose ([1]; high dose 5.0 μg XCL1-OVA) | tumor growth of B16 melanoma [4] | OVA-specific T cell cytotoxicity in vivo (specific lysis) ([5]; Xcr1−/− mice) | OVA-specific T cell cytotoxicity in vivo ([5]; wild-type mice, six days after immunization, vs PBS treated mice)
1 | ovalbumin [model antigen ovalbumin in free form, equimolar comparator, reference compound] | unable to slow down tumor growth | did not induce IFN[…]^+ T cells over PBS control |  |  |  |  |  |  |  |  |  |  | 
2 | B1 | significantly suppressed tumor growth | capable of producing interferon (IFN) gamma | 3 | 15 | triggered a higher proliferation of OT-I and OT-II cells than free OVA | comparable to that of OVA | showed no sign of proliferation | dependent on the expression of XCR1 | significantly slowed down tumor growth | tumor growth was further reduced | not able to control the growth of B16 melanoma | absence of detectable lysis | induced a significant T cell cytotoxicity
